Numbered stars: 1 amine (or outer) side, 2 acyl side, 3 side chain; on linkers, the order of the positions; unused ones are H or OH. Bridge positions count the residues as written; N and C are the ends. Peptide text beside a SMILES is read from it. * marks the point of attachment. CH2CH2 = C(C[*:2])[*:1]; Propargyl = C#CC*

Assay [1] concerns the target T1, streptavidin (Streptomyces avidinii, UniProt P22629).
T1 construct: purchased Sigma-Aldrich
The assay can be described thus: in-solution inhibition (competitive binding) assay for streptavidin binding affinity. Conditions: versus cyclo[S(OpgY)[…]].
Protocol: Then, a fixed amount of streptavidin-horseradish peroxidase conjugate is added to the plate in the presence of varying amount of the bicyclic or cyclic peptide.

For a further assay, the target named is T2, Keap1 Kelch domain (KKD) (Homo sapiens, UniProt Q14145).
T2 construct: poly-His tag with TEV protease cleavable linker (N)
T2 sequence (Q14145 321-609 limits assumed): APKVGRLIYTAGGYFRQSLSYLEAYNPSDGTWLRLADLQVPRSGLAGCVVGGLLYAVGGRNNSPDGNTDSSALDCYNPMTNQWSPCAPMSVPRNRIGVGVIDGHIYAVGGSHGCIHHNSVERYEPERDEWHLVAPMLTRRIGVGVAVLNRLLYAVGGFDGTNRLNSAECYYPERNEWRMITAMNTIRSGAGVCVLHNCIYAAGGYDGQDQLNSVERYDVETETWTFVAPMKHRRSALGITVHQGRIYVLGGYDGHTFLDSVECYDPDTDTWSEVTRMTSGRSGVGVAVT
The assay can be described thus: direct binding assay with plate-immobilized Keap1 Kelch domain (KKD) and HRP-conjugated anti-FLAG antibody. Conditions: linear version, O2beY substituted with OpgY. An excerpt:
FIG. 46A-FIG. 46C depict the selection of macrocyclic peptide inhibitors of the Keap1/Nrf2 interaction using methods disclosed herein. […] KD values correspond to the FLAG-tagged CBD-fused peptide macrocycles. FIG. 46B depicts binding curves for selected macrocyclic peptides as determined using a direct binding assay with plate-immobilized KKD and HRP-conjugated anti-FLAG antibody for detection of the bound peptide.
FIG. 47A-FIG. 47B depicts the selection of Keap1 binding macrocyclic peptides from a naïve macrocyclic peptide phage display library. […] FIG. 47B depicts the binding curves binding curves for selected macrocyclic peptides as determined using a direct binding assay with plate-immobilized KKD and HRP-conjugated anti-FLAG antibody for detection of the bound peptide.
The macrocyclic peptide phage display system of FIG. 43 was further applied to discover macrocyclic peptides capable of targeting a biomedically relevant protein-protein interaction such as the interaction between the Kelch-like ECH-associated protein 1 (Keap1) and transcriptional regulator Nrf2. […] The purified FLAG-tagged cyclic peptides were then tested for their ability to bind the Keap1 Kelch domain (KKD) using an in vitro assay, in which peptide binding to plate-immobilized KKD is detected using a HRP-conjugated anti-FLAG antibody (FIG. 46B). […]

For the next assay, the target named is T3, Keap1 Kelch Domain (KDD) (Homo sapiens, UniProt Q14145).
T3 construct: poly-His tag with TEV protease cleavable linker (N)
The assay can be described thus: KD (nM). The source says: Table printed on a drawing sheet, FIG. 47A
Head of the field: KD (nM)
The patent's description of the figure: FIG. 47A-FIG. 47B depicts the selection of Keap1 binding macrocyclic peptides from a naïve macrocyclic peptide phage display library. FIG. 47A depicts the naïve library of i/i+6-linked macrocyclic peptides (X=NNK; Y*=O2beY) and the sequences and binding affinity for selected macrocyclic Keap1-binding peptides isolated after panning the macrocyclic peptide display library against immobilized Keap1 Kelch Domain (KDD). FIG. 47B depicts the binding curves binding curves for selected macrocyclic peptides as determined using a direct binding assay with plate-immobilized KKD and HRP-conjugated anti-FLAG antibody for detection of the bound peptide.
First copying reader's note: Residue columns have no printed head; a drawn thioether linker joins Y* (first residue) and C (last residue), and the KD cells hold value ± error for binding to the Keap1 Kelch Domain (KKD).
Where the first naming reader finds the target: description_of_the_figure: isolated after panning the macrocyclic peptide display library against immobilized Keap1 Kelch Domain (KDD)

The target in assay [2] is T1, streptavidin. The assay can be described thus: direct binding assay with plate-immobilized streptavidin and HRP-conjugated anti-FLAG antibody. Conditions: CBD alone (tag control). An excerpt:
FIG. 45A-FIG. 45C depict the affinity selection of streptavidin binding peptide macrocycles using methods disclosed herein. […] KD values correspond to the corresponding FLAG-macrocycle-CBD constructs in purified form. FIG. 45B depicts binding curves for selected peptide macrocycle hits as determined using a direct binding assay with plate-immobilized streptavidin and HRP-conjugated anti-FLAG antibody for detection of the bound peptide. […] FIG. 45D depicts phage enrichment over the four rounds of affinity selection and amplification as determined via the phage titer assay.
Studies were performed to assess the functionality of the phage display-based strategy for functional selection of thioether-linked macrocyclic peptides (FIG. 43) that can bind to a target protein. […] To this end, three peptide sequences from the ‘-GD’ family and two from the ‘-FD’ family, respectively, were subcloned into a pET22 vector for expression of the corresponding macrocyclic peptides fused to a N-terminal FLAG tag and a C-terminal chitin binding domain (CBD) and poly-histidine tag to facilitate purification and quantification. […]
Binding Assays. […] Equilibrium dissociation constants (KD) were determined by fitting the dose-response curves to a 1:1 binding isotherm equation via nonlinear regression using SigmaPlot. Mean values and standard deviations were calculated from experiments performed in triplicate.

T1 sequence (P22629 25-183, species assumed): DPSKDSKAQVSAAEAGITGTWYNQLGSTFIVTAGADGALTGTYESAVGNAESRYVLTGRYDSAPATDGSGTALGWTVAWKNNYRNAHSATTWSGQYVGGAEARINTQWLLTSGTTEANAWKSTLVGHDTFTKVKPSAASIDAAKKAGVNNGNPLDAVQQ

Take `CC(C)[C@@H]1NC(=O)[C@H](CC(N)=O)NC(=O)[C@H]([C@@H](C)O)NC(=O)[C@@H]2Cc3ccc(cc3)OCCSC[C@H](NC(=O)[C@H](Cc3ccccc3)NC(=O)[C@H](CCC(N)=O)NC(=O)[C@@H]3CCCN3C(=O)[C@H](Cc3c[nH]cn3)NC1=O)C(=O)N[C@@H](CC(N)=O)C(=O)N[C@@H](C)C(=O)N[C@@H](CS)C(=O)N2` [cStrep3(C)—Z8C(p-2beF)] (cyclo(ACYTNVHPQFCN); linker 3-11 via CH2CH2): the “increase in streptavidin binding affinity as compared to the monocyclic counterpart” value on streptavidin [1] is given as over 2 fold. Take `C#CCOc1ccc(C[C@H](N)C(=O)N[C@@H](CC(=O)O)C(=O)N[C@@H](CO)C(=O)N[C@@H](CCC(=O)O)C(=O)N[C@H](C(=O)NCC(=O)N[C@@H](CCC(=O)O)C(=O)N[C@@H](CS)C(=O)O)[C@@H](C)O)cc1` [linear version of KKD-m1] (H-Y(Propargyl)DSETGEC-OH; N-terminus and C-terminus assumed): at Keap1 Kelch domain (KKD), the “lower affinity for Keap1 relative to KKD-m1” value is given as “five-fold lower affinity”. In general, Kd refers to the constant that tells how readily two partners part at equilibrium. For “Y* D A E T G E C (YDAETGEC; not fully specified; modified tyrosine Y*; KKD(6X)-m2) [SEQ ID NO: 251 | KKD(6X)-m2]”, binding with Keap1 Kelch Domain (KDD) was put at a Kd of 40 ± 13 nM. For the molecule “Y* D I E T G E C (YDIETGEC; not fully specified; modified tyrosine Y*; KKD(6X)-m1) [SEQ ID NO: 250 | KKD(6X)-m1]”, in the assay with Keap1 Kelch Domain (KDD), binding was characterised by a dissociation constant (Kd) of 43 ± 14 nM.

B1: CBD: chitin binding domain tag alone (protein)
chain: MKIEEGKLTNPGVSAWQVNTAYTAGQLVTYNGKTYKCLQPHTSLAGWEPSNVPALWQLQNNGNNGLELRHG
Consider B1, for which, in the assay with streptavidin [2], the binding to streptavidin result is listed as “no detectable binding”.

(Values after US12359192B2, “Methods and compositions for display of macrocyclic peptides” (University of Rochester, priority 2013, dated 2025).)
